For 16 molecules, Kcat and Km results are on record in patent US8008547B2, “Glyphosate-N-acetyltransferase (GAT) genes” (E.I. duPont de Nemours, priority 2000, dated 2011).

The nature of this data set: Standard protocol for determination of kcat and KM (continuous spectrophotometric assay, Acetyl CoA hydrolysis at 235 nm). It is filed as biochemical. To be noted: purified protein, about 23° C., 0.2 mM acetyl CoA; for Kcat: 20 mM HEPES pH 6.8, 10% ethylene glycol; for Km: pH 6.8, glyphosate 0.125 to 10 mM. Summed up:
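KM from initial rates over 0.125–10 mM glyphosate, fitted by Lineweaver-Burke transformation of Michaelis-Menten; kcat/KM computed as kcat divided by KM. Continuous spectrophotometric read of acetyl-CoA hydrolysis at 235 nm.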

B1: SEQ ID NO: 419: GAT polypeptide (protein)
chain: MIEVKPINAEDTYEIRHRILRPNQPLEACMYETDLLGGTFHLGGYYRGKLISIASFHQAEHPELEGQKQYQLRGMATLEGYREQKVGSTLIRHAEELLRKKGADLLWCNARTSASGYYKKLGFSEQGGVYDIPPVGPHILMYKKLT
modifications: 7_5C7
notes: GAT polypeptide
Broadly, the Km is the concentration of substrate that gives half-maximal velocity. Turning to B1, the Kcat amounted to 44.7 min⁻¹ and the Km was 1 mM.

B2: SEQ ID NO: 424: GAT polypeptide (protein)
chain: MIEVKPINAEDTYEIRHRILRPNQPLEACMYETDLLGGTFHLGGYYRGKLVSIASFHQAEHPELEGQKQYQLRGMATLEGYREQKAGSTLIRHAEALLRKKGADLLWCNARTSASGYYKKLGFSEQGEVYDTPPVGPHILMYKKLT
modifications: 9_15D8
notes: GAT polypeptide
With B2, the Kcat was 107.3 min⁻¹ and the Km worked out at 1.1 mM.

B3: SEQ ID NO: 426: GAT polypeptide (protein)
chain: MIEVKPINAEDTYEIRHRILRPNQPLEACMYETDLLGGTFHLGGYYRGKLISIASFHQAEHPELVGQKQYQLRGMATLEGYREQKAGSTLIRHAEELLRKKGADLLWCNARTSASGYYKKLGFSEQGEVYDIPPVGPHILMYKKLT
modifications: 9_18H2
notes: GAT polypeptide
For the molecule B3, the Kcat stood at 25 min⁻¹ and the Michaelis constant (Km) was determined as 1.1 mM.

B4: SEQ ID NO: 432: GAT polypeptide (protein)
chain: MIEVKPINAEDTYEIRHRILRPNQPLEACKYETDLLGGTLHLGGYYRGKLISIASFHQAEHPELEGQKQYQLRGMATLEGYREQKAGSTLIRHAEELLRKKGADLIWCNARTSASGYYKKLGFSEQGEVYDIPPVGPHILMYKKLT
modifications: 9_4H10
notes: GAT polypeptide
For B4, the Kcat amounted to 101.3 min⁻¹ and the Km was found to be 1.5 mM.

B5: SEQ ID NO: 420: GAT polypeptide (protein)
chain: MIEVKPINAEDTYEIRHRILRPNQPLEACMYETDLLGGTFHLGGYYRGKLISIASFHQAEHPELEGQKQYQLRGMATLEGYREQKAGSTLIRHAEELLRKKGADLLWCNARTSASGYYKKLGFSEQGEVYDIPPIGPHILMYKKLT
modifications: 7_9C9
notes: GAT polypeptide
Consider B5, for which the Kcat was 65 min⁻¹ and the Km was 1 mM.

B6: SEQ ID NO: 422: GAT polypeptide (protein)
chain: MIEAKPINAEDTYEIRHRILRPNQPLEACMYETDLLGGTFHLGGYYRGKLVSIASFHQAEHTELEGQKQYQLRGMATLEEYREQKAGSTLIRHAEELLRKKGADLLWCNARTSASGYYKKLGFSEQGEVYDIPPVGPHILMYKKLT
modifications: 9_13F1
notes: GAT polypeptide
Take B6: the Kcat is 31.6 min⁻¹ and the Km was 1.1 mM.

B7: SEQ ID NO: 431: GAT polypeptide (protein)
chain: MIEVKPINAEDTYEIRHRILRPNQPLEACKYETDLLRGAFHLGGYYRGKLISIASFHQAEHSELEGQKQYQLRGMATLEGYREQKAGSTLIRHAEALLRKKGADLLWCNARTSASGYYKKLGFSEQGEVYDIPPTGPHILMYKKLT
modifications: 9_24F6
notes: GAT polypeptide
For B7, the Kcat came out at 52.5 min⁻¹ and the Michaelis constant (Km) came out at 0.9 mM.

B8: SEQ ID NO: 428: GAT polypeptide (protein)
chain: MIEVKPINAEDTYEIRHRILRPNQPLEACMYETDLLGGTFHLGGYYRGKLISIASFHQAEHPELEGQKQYQLRGMATLEGYREQKAGSTLIRHAEELLRKKGADLLWCNARTSASGYYKKLGFSDQGEVYDIPPVGPHILMYKKLT
modifications: 9_21C8
notes: GAT polypeptide
As to B8, the Kcat was found to be 28.6 min⁻¹ and the Km was 1.2 mM.

B9: SEQ ID NO: 433: GAT polypeptide (protein)
chain: MIEVKPINAEDTYEIRHRILRPNQPLEACMYETDLLGGTFHLGGYYRGKLISIASFNQAEHPELEGQKQYQLRGMATLEGYREQKAGSTLIRHAEELLRKKGADLLWCNARTSASGYYKKLGFSEQGEVYDIPPVGPHILMYKKLT
modifications: 9_4H8
notes: GAT polypeptide
As to B9, the Kcat stood at 47.1 min⁻¹ and the Km came out at 0.6 mM.

B10: SEQ ID NO: 425: GAT polypeptide (protein)
chain: MIEVKPINAEDTYEIRHRILRPNQPLEACMYETDMLRGAFHLGGYYRGKLISIASFHQAEHPELEGQKQYQLRGMATLEEYHEQKAGSTLIRHAEELLRKKGADLLWCNARTSASGYYKKLGFSEQGEVYNTPPVGPHILMYKKLT
modifications: 9_15H3
notes: GAT polypeptide
As to B10, the Kcat turned out to be 68.7 min⁻¹ and the Km was 1.9 mM.

B11: SEQ ID NO: 423: GAT polypeptide (protein)
chain: MIEVKPINAEDTYEIRHRILRPNQPLDACKYETDLLGGTFHLGGYYRGKLISIASFHQAEHPELEGQKQYQLRGMATLEGYREQKAGSTLIRHAEELLRKKGADLLWCNARTSASGYYKKLGFSEQGEVYDIPPVGPHILMYKKLT
modifications: 9_15D5
notes: GAT polypeptide
B11: the Kcat was 27.6 min⁻¹ and the Km worked out at 1.2 mM.

B12: SEQ ID NO: 427: GAT polypeptide (protein)
chain: MIEVKPINAEDTYEIRHRVLRPNQPLEACMYETDLLGGTFHLGGYYRGELVSIASFHQAEHPELEGQKQYQLRGMATLEGYREQKAGSTLIRHAEELLRKKGADLLWCNARTSASGYYKKLGFSEQGGVYDIPPVGPHILMYKKLT
modifications: 9_20F12
notes: GAT polypeptide
Regarding B12, the Kcat was found to be 37.8 min⁻¹ and the Michaelis constant (Km) amounted to 1 mM.

B13: SEQ ID NO: 273: GAT polypeptide (protein)
chain: MIEVKPINAEDTYEIRHRILRPNQPLEACKYETDLLGGTFHLGGYYRGKLVSIASFHQAEHSELEGQKQYQLRGMATLEEYREQKAGSTLIRHAEELLRKKGADLLWCNARTSASGYYKKLGFSEQGGVYDIPPVGPHILMYKKLT
modifications: 10_18G9
notes: GAT polypeptide
In the case of B13, the Kcat was 24 min⁻¹ and the Km was 1.2 mM.

B14: SEQ ID NO: 421: GAT polypeptide (protein)
chain: MIEVKPINAEDTYEIRHRILRPNQPLEACKYETDLLRGAFHLGGYYRGKLVSIASFHQAEHSELEGQKQYQLRGMATLEEYREQKAGSTLIRHAEELLRKKGADLLWCNARTSASGYYKKLGFSEQGEVYDIPPTGPHILMYKKLT
modifications: 9_13F10
notes: GAT polypeptide
For B14, the Kcat turned out to be 34.7 min⁻¹ and the Km came to 0.7 mM.

B15: SEQ ID NO: 429: GAT polypeptide (protein)
chain: MIEVKPINAEDTYEIRHRILRPNQPLEACKYETDLLGGTFHLGGYYRGKLVSIASFHQAEHPELEGQKQYQLRGMATLEGYREQKAGSTLIRHAEELLRKKGADLLWCNARTSASGYYKKLGFSEQGEVYDLPPTGPHILMYKKLT
modifications: 9_22B1
notes: GAT polypeptide
With B15, the Kcat came out at 50.1 min⁻¹ and the Michaelis constant (Km) was 1.4 mM.

B16: SEQ ID NO: 430: GAT polypeptide (protein)
chain: MIEVKPINAEDTYEIRHRILRPNQPLEACKYETDLLGGTLHLGGYYRGKLVSIASFHQAEHPELEGQKQYQLRGMATLEGYRGQKAGSTLIRHAEELLRKKGADLLWCNARTSASGYYKKLGFSEQGGVYDIPPVGPHILMYKKLT
modifications: 9_23A10
notes: GAT polypeptide
As to B16, the Kcat worked out at 21 min⁻¹ and the Km was 1 mM.
